The values below come from article PMC4578769, “Development of a Fluorescence-based Trypanosoma cruzi CYP51 Inhibition Assay for Effective Compound Triaging in Drug Discovery Programmes for Chagas Disease” (PLoS Neglected Tropical Diseases, 2015).

Substrate in the data set: N#Cc1cc2ccc(OCOCc3ccccc3)cc2oc1=O
Nature of the data set: Michaelis-Menten kinetic determination of BOMCC O-dealkylation. Particulars: other: 37 pmoles/mL T. cruzi CYP51 enzyme, 25-250 μM BOMCC, 37°C. The class given is biochemical, Trypanosoma cruzi. As to the method: Incubations were pre-warmed at 37°C before addition of NADPH regenerating system. Production of CHC was measured at 1 minute intervals at 37°C (Exc 410 nm, Em 460 nm) for 10 minutes (Fig 3b). […] Assay conditions of 37 pmoles/mL of T. cruzi CYP51 in bactosomes and 100 μM BOMCC provided a good dynamic range of metabolism.

B1: T. cruzi CYP51 (Trypanosoma cruzi strain CL Brener) (protein)
chain: MFIEAIVLALTALILYSVYSVKSFNTTRPTDPPVYPVTVPFLGHIVQFGKNPLEFMQRCKRDLKSGVFTISIGGQRVTIVGDPHEHSRFFSPRNEILSPREVYTIMTPVFGEGVAYAAPYPRMREQLNFLAEELTIAKFQNFVPAIQHEVRKFMAENWKEDEGVINLLEDCGAMIINTACQCLFGEDLRKRLNARHFAQLLSKMESSLIPAAVFMPWLLRLPLPQSARCREARAELQKILGEIIVAREKEEASKDNNTSDLLGGLLKAVYRDGTRMSLHEVCGMIVAAMFAGQHTSTITTSWSMLHLMHPKNKKWLDKLHKEIDEFPAQLNYDNVMDEMPFAERCVRESIRRDPPLLMVMRMVKAEVKVGSYVVPKGDIIACSPLLSHHDEEAFPNPRLWDPERDEKVDGAFIGFGAGVHKCIGQKFALLQVKTILATAFREYDFQLLRDEVPDPDYHTMVVGPTLNQCLVKYTRKKKLPS
notes: ompA leader (N); host or cells: E. coli JM109 (membrane fraction, bactosomes)
Regarding B1, the Km (as a rule, the concentration of substrate that gives half-maximal velocity) came out at 191 ± 55 µM.
